Target: T1, chimeric LIF receptor (human LIF receptor and human gp130 / mouse G-CSF receptor) in Ba/F3 cell line LIG (Homo sapiens, UniProt P40189+P42702)
T1 construct: from the 1st to the 833rd amino acid residues; expressed in transfected cells; host or cells: mouse Ba/F3 cells co-transfected with pCV-cLIFR and pCV-cgp130, clone LIG#47 = LIG
T1 sequence (P42702 45-833): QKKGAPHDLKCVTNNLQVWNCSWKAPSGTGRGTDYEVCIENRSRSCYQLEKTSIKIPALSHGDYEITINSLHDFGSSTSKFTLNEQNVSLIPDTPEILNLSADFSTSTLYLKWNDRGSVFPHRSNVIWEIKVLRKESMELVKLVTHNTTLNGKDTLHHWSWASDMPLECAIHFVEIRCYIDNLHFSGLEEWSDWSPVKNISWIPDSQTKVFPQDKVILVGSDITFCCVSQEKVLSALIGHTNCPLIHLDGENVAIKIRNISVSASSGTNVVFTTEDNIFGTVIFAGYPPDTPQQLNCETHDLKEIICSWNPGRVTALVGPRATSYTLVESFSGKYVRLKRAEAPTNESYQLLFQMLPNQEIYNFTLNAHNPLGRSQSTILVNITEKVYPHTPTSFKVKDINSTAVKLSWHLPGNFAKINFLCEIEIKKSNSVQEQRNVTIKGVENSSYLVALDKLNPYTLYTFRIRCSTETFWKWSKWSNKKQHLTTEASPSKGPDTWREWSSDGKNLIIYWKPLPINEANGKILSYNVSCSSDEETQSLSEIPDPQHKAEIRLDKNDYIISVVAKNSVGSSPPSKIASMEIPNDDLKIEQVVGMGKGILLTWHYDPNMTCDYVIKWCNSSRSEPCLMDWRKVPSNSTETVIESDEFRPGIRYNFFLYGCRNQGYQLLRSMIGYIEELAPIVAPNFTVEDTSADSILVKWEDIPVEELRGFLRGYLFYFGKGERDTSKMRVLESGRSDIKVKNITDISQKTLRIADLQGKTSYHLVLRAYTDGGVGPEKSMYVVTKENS
T1 sequence (P40189 23-619): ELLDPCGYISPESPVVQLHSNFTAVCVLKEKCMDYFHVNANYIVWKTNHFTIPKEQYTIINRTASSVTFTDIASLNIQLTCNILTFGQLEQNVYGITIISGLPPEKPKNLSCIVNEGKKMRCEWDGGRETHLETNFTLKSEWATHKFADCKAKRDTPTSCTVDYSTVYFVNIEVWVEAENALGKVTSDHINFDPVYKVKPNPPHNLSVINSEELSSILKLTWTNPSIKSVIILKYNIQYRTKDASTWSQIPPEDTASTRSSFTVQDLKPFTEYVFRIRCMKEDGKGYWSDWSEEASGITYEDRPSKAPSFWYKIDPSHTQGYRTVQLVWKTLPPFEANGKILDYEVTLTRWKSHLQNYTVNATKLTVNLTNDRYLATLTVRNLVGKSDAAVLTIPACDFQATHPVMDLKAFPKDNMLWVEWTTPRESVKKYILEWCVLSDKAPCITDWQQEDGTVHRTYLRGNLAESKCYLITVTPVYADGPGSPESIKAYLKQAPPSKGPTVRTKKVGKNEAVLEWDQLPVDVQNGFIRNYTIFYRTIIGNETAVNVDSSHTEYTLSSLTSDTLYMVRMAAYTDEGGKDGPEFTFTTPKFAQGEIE
T1 sequence (P40223 627-837 partner limits assumed): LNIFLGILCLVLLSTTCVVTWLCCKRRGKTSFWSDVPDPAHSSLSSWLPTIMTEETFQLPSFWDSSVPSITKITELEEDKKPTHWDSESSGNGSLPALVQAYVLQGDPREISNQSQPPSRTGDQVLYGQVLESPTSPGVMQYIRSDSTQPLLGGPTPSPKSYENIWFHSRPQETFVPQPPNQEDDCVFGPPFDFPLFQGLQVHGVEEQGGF
Experiment: Growth response of chimeric LIF receptor-expressing Ba/F3 cell line LIG (WST-8)
Format: cell-based
Conditions: 72 hours culture, WST-8 absorbance
Text: Chimeric receptor DNAs were constructed by linking cDNA fragments encoding human LIF receptor (from the 1st to the 833rd amino acid residues; Gearing, D P. et al. […] EMBO J., 10, 2839-2848) and human gp130 (from the 1st to the 619th amino acid residues; Hibi, M. et al. (1990) Cell, 63, 1149-1157) with the transmembrane and intracellular domains (from the 602nd to the 813th amino acid residues; Fukunaga, R. et al. (1990) Cell 61, 341-350) of mouse G-CSF receptor, respectively. These constructs were inserted downstream of the HEF1α promoter of the mammalian expression vector pCV to construct chimeric receptors expression vectors, pCV-cLIFR and pCV-cgp130, respectively. pCV-cLIFR and pCV-cgp130 were linearized with Pvu I (Takara Shuzo), respectively, extracted with phenol and chloroform, and purified by ethanol precipitation. […]
The cells were washed twice with Media A, and were suspended in Media A to give a cell density of 5×10^4 cells/mL. […] After the culture, 10 μL/well WST-8 reagent (Cell Count Reagent SF; Nacalai Tesque) was added, and pre-reaction absorbance at a measurement wavelength of 450 nm and a control wavelength of 655 nm was measured using microplate reader (Model 3550, Bio Rad). The plate was incubated for two hours in a CO2 incubator (CO2 concentration, 5%), and post-reaction absorbance was measured as above. […]

B1: human CNTF: human ciliary neurotrophic factor (Genzyme) (protein, UniProt P26441 1-200, looked up)
Ciliary neurotrophic factor: MAFTEHSPLTPHRRDLCSRSIWLARKIRSDLTALTESYVKHQGLNKNINLDSADGMPVASTDQWSELTEAERLQENLQAYRTFHVLLARLLEDQQVHFTPTEGDFHQAIHTLLLQVAAFAYQIEELMILLEYKIPRNEADGMPINVGDGGLFEKKLWGLKVLQELSQWTVRSIHDLRFISSHQTGIPARGSHYIANNKKM
**Q.** Which “concentration at which an evident growth reaction was observed” value does the source give for B1 here?
**A.** The value was > 10 ng/mL.
